According to US20170051072A1:

Key:
[1] = target: human mesothelin with His-tag (R&D Systems) (human) (UniProt Q13421); assay: ELISA, IgG on captured His-huMesothelin (R&D)
[2] = target: human mesothelin with His-tag (in house) (human) (UniProt Q13421); assay: ELISA, IgG on captured His-huMesothelin (in house)
Chain of human mesothelin with His-tag (in house) (human) (Q13421 other isoform, or with tags, fused parts or gaps limits assumed): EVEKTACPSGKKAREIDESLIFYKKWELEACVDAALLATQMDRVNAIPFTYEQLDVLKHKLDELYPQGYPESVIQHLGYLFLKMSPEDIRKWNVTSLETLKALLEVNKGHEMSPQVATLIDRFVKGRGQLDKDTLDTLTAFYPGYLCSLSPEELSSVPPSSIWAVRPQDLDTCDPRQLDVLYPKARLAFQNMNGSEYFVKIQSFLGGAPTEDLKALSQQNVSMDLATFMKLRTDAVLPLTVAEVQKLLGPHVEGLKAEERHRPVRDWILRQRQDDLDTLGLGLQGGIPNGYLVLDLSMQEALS

Chain of human mesothelin with His-tag (R&D Systems) (human) (Q13421 other isoform, or with tags, fused parts or gaps limits assumed): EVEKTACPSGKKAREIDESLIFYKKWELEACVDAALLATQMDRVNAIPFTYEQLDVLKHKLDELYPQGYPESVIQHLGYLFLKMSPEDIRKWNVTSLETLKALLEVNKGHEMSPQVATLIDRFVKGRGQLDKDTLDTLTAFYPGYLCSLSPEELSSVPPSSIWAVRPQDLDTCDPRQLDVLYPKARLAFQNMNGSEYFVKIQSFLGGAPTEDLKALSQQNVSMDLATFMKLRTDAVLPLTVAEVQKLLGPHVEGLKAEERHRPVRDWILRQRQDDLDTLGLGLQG

- EC50 [1]: 0.0461 µg/mL
- EC50 [2]: 0.0411 µg/mL
Substance: IgG VH HC_SS1/15436 + VL LC_SS1/15455 (antibody)
